These are literature values, as cited in patent US20230127008A1, “STAT3-TARGETED BASE EDITOR THERAPEUTICS FOR THE TREATMENT OF MELANOMA AND OTHER CANCERS” (The Broad Institute, Inc., priority 2020, published 2023).

The subject of this data set is DNA. Particulars: SpCas9 mutation relative to SEQ ID NO: 74; UniProtKB-Q99ZW2 entry.

B1: 175-307 deletion: SpCas9 mutation relative to canonical SpCas9, SEQ ID NO: 74 (protein)
chain: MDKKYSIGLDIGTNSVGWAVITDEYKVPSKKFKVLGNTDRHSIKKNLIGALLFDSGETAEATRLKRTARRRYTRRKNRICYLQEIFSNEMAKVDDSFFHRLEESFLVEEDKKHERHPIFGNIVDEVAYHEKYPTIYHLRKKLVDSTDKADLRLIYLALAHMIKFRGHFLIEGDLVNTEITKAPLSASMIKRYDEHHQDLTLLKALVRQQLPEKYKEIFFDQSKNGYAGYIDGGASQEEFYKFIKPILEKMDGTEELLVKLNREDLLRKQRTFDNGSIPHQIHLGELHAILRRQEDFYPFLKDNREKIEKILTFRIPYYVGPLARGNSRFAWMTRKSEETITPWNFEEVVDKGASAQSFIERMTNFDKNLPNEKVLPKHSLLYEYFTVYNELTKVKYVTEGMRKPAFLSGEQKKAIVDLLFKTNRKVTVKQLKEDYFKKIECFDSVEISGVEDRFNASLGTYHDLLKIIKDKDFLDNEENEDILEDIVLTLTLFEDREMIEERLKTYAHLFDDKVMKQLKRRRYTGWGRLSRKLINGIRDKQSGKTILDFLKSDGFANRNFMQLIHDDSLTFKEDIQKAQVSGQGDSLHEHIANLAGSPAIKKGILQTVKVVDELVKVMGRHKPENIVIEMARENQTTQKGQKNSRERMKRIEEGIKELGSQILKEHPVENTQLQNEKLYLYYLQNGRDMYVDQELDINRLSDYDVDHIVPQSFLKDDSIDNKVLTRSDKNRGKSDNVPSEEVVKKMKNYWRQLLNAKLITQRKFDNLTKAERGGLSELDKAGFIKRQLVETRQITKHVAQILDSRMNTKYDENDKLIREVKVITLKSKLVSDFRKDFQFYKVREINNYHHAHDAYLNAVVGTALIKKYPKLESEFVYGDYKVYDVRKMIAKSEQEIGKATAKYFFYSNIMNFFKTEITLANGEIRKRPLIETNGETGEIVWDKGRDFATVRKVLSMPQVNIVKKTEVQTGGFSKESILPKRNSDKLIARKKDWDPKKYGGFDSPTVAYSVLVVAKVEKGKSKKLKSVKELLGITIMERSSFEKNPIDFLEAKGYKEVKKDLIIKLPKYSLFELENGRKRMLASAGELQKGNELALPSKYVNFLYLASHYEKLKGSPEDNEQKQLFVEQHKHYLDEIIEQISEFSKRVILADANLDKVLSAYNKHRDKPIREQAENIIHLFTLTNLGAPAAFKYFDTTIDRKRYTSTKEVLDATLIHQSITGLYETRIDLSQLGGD
modifications: Streptococcus pyogenes
Consider B1, for which the “decreased DNA cleavage” value is given as “About 50% decreased DNA cleavage”.
